Experimental data as given in article PMC12450071 (Cell reports, 2025).

Biological target: JUNV GP1 (receptor-binding domain), subunit within the GPC on PV membranes (Junin mammarenavirus, strain MC2 …, UniProt P26313)
Test: cryo-EM structure
Details: one partner purified

JUNV GP1 (receptor-binding domain), subunit within the GPC on PV membranes, sequence (P26313 whole entry, looked up, the tested form may be a part): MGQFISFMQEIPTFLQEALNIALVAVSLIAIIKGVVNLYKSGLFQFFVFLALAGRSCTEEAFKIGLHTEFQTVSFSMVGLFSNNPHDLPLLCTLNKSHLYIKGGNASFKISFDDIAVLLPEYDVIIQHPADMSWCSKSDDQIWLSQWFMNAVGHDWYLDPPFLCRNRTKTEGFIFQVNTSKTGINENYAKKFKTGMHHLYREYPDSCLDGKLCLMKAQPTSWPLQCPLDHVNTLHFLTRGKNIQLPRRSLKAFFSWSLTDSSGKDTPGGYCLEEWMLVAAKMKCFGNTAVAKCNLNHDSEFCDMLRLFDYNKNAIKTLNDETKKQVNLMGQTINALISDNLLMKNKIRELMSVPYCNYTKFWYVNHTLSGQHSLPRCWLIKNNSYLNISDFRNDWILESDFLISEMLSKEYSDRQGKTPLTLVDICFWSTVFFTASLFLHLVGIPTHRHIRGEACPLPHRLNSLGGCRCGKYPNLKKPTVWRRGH

B1: GFP-fused Fab of the neutralizing antibody CR1-28 (Fab, V domains shown)
VH: QVQLVESGGGVVQPGRSLRLSCAASGFTFSSSAMHWVRQAPGKGLEWVAVIWSDGSNENYADSVKGRFTISRDNSKNTLYLQMSSLRAEDTAVYYCATDKTYVSGYTSTWYYFNYWGQGTLVTVSG
VL: DIQMTQSPSTLSASVGDRVTITCRASQSIDNWLAWYQQKPGKAPKLLIYTASRLESGVPSRFSGSGSGTEFTLTISSLQPDDFATYYCQHRTFGQGTKVEIK
notes: also called CR1–28Fab; GFP-fused CR1–28Fab; source: HEK293T, transfected, purified from culture media (Ni-NTA)
B1: binds.

B2: GB03-BE08 (J199) Fab (Fab, V domains shown)
VH: VALVESGGGLVQPGGSLKLSCASGASFSNAGMSWVRQTPDRRLELVAAINRDGDITYHPDSVKGRFTISRDNAKNTLYLQMSSLKSEDTAMYYCAREDYYGLYFYVMDYWGQGTSVTVA
VL: QIVLTQSPAIMSASPGEKVTITCSASSIVSYMHWFQQKPGTSPKLWIYGTSNLASGVPARFSGSGSGTSYSLTISRMEAEDAATYYCQQRNSYPPTFGGGTKLEIK
notes: source: bought: BEI Resources (J199), ficin digested, dialyzed into TBS pH 8
B2: binds.
